These results are taken from PMC2483528.

Holding throughout (assay): pull-down
Assay [1] has as its target GST-Gαi3 wild type (rat) (rat) (UniProt P08753).
Assay [2] has as its target GST-Gαi3 G203A (rat, inactive mutant) (rat) (UniProt P08753).
The next assay deals with GST-Gαs (human) (human) (UniProt P63092).
Sequence of UniProt P63092 (P63092 2-394): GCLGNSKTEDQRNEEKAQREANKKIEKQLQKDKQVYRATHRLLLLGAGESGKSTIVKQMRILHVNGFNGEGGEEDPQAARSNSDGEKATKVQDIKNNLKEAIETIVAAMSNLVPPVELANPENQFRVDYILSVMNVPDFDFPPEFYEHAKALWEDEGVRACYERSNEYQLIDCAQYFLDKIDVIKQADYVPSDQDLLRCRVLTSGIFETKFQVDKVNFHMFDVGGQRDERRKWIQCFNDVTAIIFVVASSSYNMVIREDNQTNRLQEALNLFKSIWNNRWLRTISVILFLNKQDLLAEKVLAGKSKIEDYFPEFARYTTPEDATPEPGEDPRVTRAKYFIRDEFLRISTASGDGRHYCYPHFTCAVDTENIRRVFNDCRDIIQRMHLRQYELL

For the substance “GIV S1416A, in vitro translated (natural protein)”, the percent of GIV bound to GST-Gαi3 in assay [1] came to 13%.

Take “GIV (Gα-interacting vesicle-associated protein), endogenous in HeLa cell lysate (natural protein)”: in assay [2], the fold more GIV bound than by Gαi3Q204L was in the range of 10 to 15 fold. The substance also yielded a percent of the total GIV bound in assay [1] of 10 to 30%. The substance also yielded a fold less GIV bound than by GST-Gαi3 with GST-Gαs (human) (human) of 100 to 300 fold.

“GIV S1416D, in vitro translated (natural protein)”: the percent of GIV bound to GST-Gαi3 in assay [1] came out at 14%.

Consider “GIV, full length, in vitro translated (natural protein)”, for which the fold more GIV bound than by Gαi3Q204L in assay [2] fell in the range of 10 to 15 fold. In assay [1], this substance showed a percent of GIV bound to GST-Gαi3 of 14%. The substance also displayed a fold less GIV bound than by GST-Gαi3 with GST-Gαs (human) (human) of 100 to 300 fold.
